Experiments:
[1] = test system: HeLa Kyoto; experiment: melting temperature (median over replicates), in situ; higher = more thermally stable
[2] = test system: HeLa Kyoto; experiment: thermal stability score vs G1/S (z-score of summed log2 fold changes over temperatures); higher = more thermally stable than in G1/S
[3] = test system: HeLa Kyoto; experiment: solubility change mitosis vs G1/S (difference of NP-40 vs SDS log2 ratios) (log2 ratio difference); higher = more soluble in mitosis
[4] = test system: HeLa Kyoto; experiment: solubility in G1/S (NP-40 vs SDS abundance) (log2 ratio); higher = more soluble; conditions: cell cycle stage: G1/S
[5] = cell cycle stage: early G1 (4.5 h after nocodazole release)
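Throughout, for melting temperature (median over replicates), in situ: HeLa Kyoto cells synchronized by double thymidine or nocodazole block, proteins quantified by TMT10plex mass spectrometry, three independent biological replicates.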
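Throughout, for solubility change mitosis vs G1/S (difference of NP-40 vs SDS log2 ratios): synchronized HeLa Kyoto cells (double thymidine block for G1/S, nocodazole release for mitosis), protein amounts in NP-40 versus SDS lysates quantified by mass spectrometry, three biological replicates.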
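Throughout, for solubility in G1/S (NP-40 vs SDS abundance): HeLa Kyoto cells arrested at G1/S by double thymidine block, proteins quantified by TMT10plex mass spectrometry in mild NP-40 versus SDS extracts, three biological replicates.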
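Throughout, for thermal stability score vs G1/S (z-score of summed log2 fold changes over temperatures): synchronized HeLa Kyoto cells, proteins quantified by TMT10plex mass spectrometry, three biological replicates, mitosis taken 0.5 h after nocodazole release, G1/S directly after double thymidine block.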

Row | Sequence | melting temperature ([1]; cell cycle stage: G1/S) [°C] | melting temperature ([1]; cell cycle stage: mitosis) [°C] | thermal stability score [2, 5] | thermal stability score ([2]; cell cycle stage: mitosis) | solubility change mitosis (log2) [3] | solubility in G1/S (log2) [4]
1 | MAVSAGSARTSPSSDKVQKDKAELISGPRQDSRIGKLLGFEWTDLSSWRRLVTLLNRPTDPASLAVFRFLFGFLMVLDIPQERGLSSLDRKYLDGLDVCRFPLLDALRPLPLDWMYLVYTIMFLGALGMMLGLCYRISCVLFLLPYWYVFLLDKTSWNNHSYLYGLLAFQLTFMDANHYWSVDGLLNAHRRNAHVPLWNYAVLRGQIFIVYFIAGVKKLDADWVEGYSMEYLSRHWLFSPFKLLLSEELTSLLVVHWGGLLLDLSAGFLLFFDVSRSIGLFFVSYFHCMNSQLFSIGMFSYVMLASSPLFCSPEWPRKLVSYCPRRLQQLLPLKAAPQPSVSCVYKRSRGKSGQKPGLRHQLGAAFTLLYLLEQLFLPYSHFLTQGYNNWTNGLYGYSWDMMVHSRSHQHVKITYRDGRTGELGYLNPGVFTQSRRWKDHADMLKQYATCLSRLLPKYNVTEPQIYFDIWVSINDRFQQRIFDPRVDIVQAAWSPFQRTSWVQPLLMDLSPWRAKLQEIKSSLDNHTEVVFIADFPGLHLENFVSEDLGNTSIQLLQGEVTVELVAEQKNQTLREGEKMQLPAGEYHKVYTTSPSPSCYMYVYVNTTELALEQDLAYLQELKEKVENGSETGPLPPELQPLLEGEVKGGPEPTPLVQTFLRRQQRLQEIERRRNTPFHERFFRFLLRKLYVFRRSFLMTCISLRNLILGRPSLEQLAQEVTYANLRPFEAVGELNPSNTDSSHSNPPESNPDPVHSEF [GGCX] | 53 | 53.1 | -1.48 | -3.01 | -0.054 | 0.0675
2 | MAVVIRLLGLPFIAGPVDIRHFFTGLTIPDGGVHIIGGEIGEAFIIFATDEDARRAISRSGGFIKDSSVELFLSSKAEMQKTIEMKRTDRVGRGRPGSGTSGVDSLSNFIESVKEEASNSGYGSSINQDAGFHTNGTGHGNLRPRKTRPLKAENPYLFLRGLPYLVNEDDVRVFFSGLCVDGVIFLKHHDGRNNGDAIVKFASCVDASGGLKCHRSFMGSRFIEVMQGSEQQWIEFGGNAVKEGDVLRRSEEHSPPRGINDRHFRKRSHSKSPRRTRSRSPLGFYVHLKNLSLSIDERDLRNFFRGTDLTDEQIRFLYKDENRTRYAFVMFKTLKDYNTALSLHKTVLQYRPVHIDPISRKQMLKFIARYEKKRSGSLERDRPGHVSQKYSQEGNSGQKLCIYIRNFPFDVTKVEVQKFFADFLLAEDDIYLLYDDKGVGLGEALVKFKSEEQAMKAERLNRRRFLGTEVLLRLISEAQIQEFGVNFSVMSSEKMQARSQSRERGDHSHLFDSKDPPIYSVGAFENFRHQLEDLRQLDNFKHPQRDFRQPDRHPPEDFRHSSEDFRFPPEDFRHSPEDFRRPREEDFRRPSEEDFRRPWEEDFRRPPEDDFRHPREEDWRRPLEEDWRRPLEEDFRRSPTEDFRQLPEEDFRQPPEEDLRWLPEEDFRRPPEEDWRRPPEEDFRRPLQGEWRRPPEDDFRRPPEEDFRHSPEEDFRQSPQEHFRRPPQEHFRRPPPEHFRRPPPEHFRRPPPEHFRRPPPEHFRRPPPEHFRRPPPEHFRRPPQEHFRRPPQEHFRRSREEDFRHPPDEDFRGPPDEDFRHPPDEDFRSPQEEDFRCPSDEDFRQLPEEDLREAPEEDPRLPDNFRPPGEDFRSPPDDFRSHRPFVNFGRPEGGKFDFGKHNMGSFPEGRFMPDPKINCGSGRVTPIKIMNLPFKANVNEILDFFHGYRIIPDSVSIQYNEQGLPTGEAIVAMINYNEAMAAIKDLNDRPVGPRKVKLTLL [RBM12B] | 47.6 | 49.7 | 0.194 | 1.05 | 0.191 | -0.972
3 | MAWALKLPLADEVIESGLVQDFDASLSGIGQELGAGAYSMSDVLALPIFKQEESSLPPDNENKILPFQYVLCAATSPAVKLHDETLTYLNQGQSYEIRMLDNRKLGELPEINGKLVKSIFRVVFHDRRLQYTEHQQLEGWRWNRPGDRILDIDIPMSVGIIDPRANPTQLNTVEFLWDPAKRTSVFIQVHCISTEFTMRKHGGEKGVPFRVQIDTFKENENGEYTEHLHSASCQIKVFKPKGADRKQKTDREKMEKRTPHEKEKYQPSYETTILTECSPWPEITYVNNSPSPGFNSSHSSFSLGEGNGSPNHQPEPPPPVTDNLLPTTTPQEAQQWLHRNRFSTFTRLFTNFSGADLLKLTRDDVIQICGPADGIRLFNALKGRMVRPRLTIYVCQESLQLREQQQQQQQQQQKHEDGDSNGTFFVYHAIYLEELTAVELTEKIAQLFSISPCQISQIYKQGPTGIHVLISDEMIQNFQEEACFILDTMKAETNDSYHIILK [TFCP2] | 48.2 | 48.6 | 0.94 | 2.72 | -0.0306 | -0.0776
4 | MAWTKYQLFLAGLMLVTGSINTLSAKWADNFMAEGCGGSKEHSFQHPFLQAVGMFLGEFSCLAAFYLLRCRAAGQSDSSVDPQQPFNPLLFLPPALCDMTGTSLMYVALNMTSASSFQMLRGAVIIFTGLFSVAFLGRRLVLSQWLGILATIAGLVVVGLADLLSKHDSQHKLSEVITGDLLIIMAQIIVAIQMVLEEKFVYKHNVHPLRAVGTEGLFGFVILSLLLVPMYYIPAGSFSGNPRGTLEDALDAFCQVGQQPLIAVALLGNISSIAFFNFAGISVTKELSATTRMVLDSLRTVVIWALSLALGWEAFHALQILGFLILLIGTALYNGLHRPLLGRLSRGRPLAEESEQERLLGGTRTPINDAS [SLC35F6] | 60.1 | 56 | -2.27 | -5.04 | -0.0109 | -0.144
5 | MAWVLKMDEVIESGLVHDFDASLSGIGQELGAGAYSMSDVLALPIFKQEDSSLPLDGETEHPPFQYVMCAATSPAVKLHDETLTYLNQGQSYEIRMLDNRKMGDMPEINGKLVKSIIRVVFHDRRLQYTEHQQLEGWKWNRPGDRLLDLDIPMSVGIIDTRTNPSQLNAVEFLWDPAKRTSAFIQVHCISTEFTPRKHGGEKGVPFRIQVDTFKQNENGEYTDHLHSASCQIKVFKPKGADRKQKTDREKMEKRTAHEKEKYQPSYDTTILTEMRLEPIIEDAVEHEQKKSSKRTLPADYGDSLAKRGSCSPWPDAPTAYVNNSPSPAPTFTSPQQSTCSVPDSNSSSPNHQGDGASQTSGEQIQPSATIQETQQWLLKNRFSSYTRLFSNFSGADLLKLTKEDLVQICGAADGIRLYNSLKSRSVRPRLTIYVCREQPSSTVLQGQQQAASSASENGSGAPYVYHAIYLEEMIASEVARKLALVFNIPLHQINQVYRQGPTGIHILVSDQMVQNFQDESCFLFSTVKAESSDGIHIILK [UBP1] | 50.5 | 48.3 | -0.25 | -0.0933 | 0.0235 | 0.06
6 | MAYAYLFKYIIIGDTGVGKSCLLLQFTDKRFQPVHDLTIGVEFGARMITIDGKQIKLQIWDTAGQESFRSITRSYYRGAAGALLVYDITRRDTFNHLTTWLEDARQHSNSNMVIMLIGNKSDLESRREVKKEEGEAFAREHGLIFMETSAKTASNVEEAFINTAKEIYEKIQEGVFDINNEANGIKIGPQHAATNATHAGNQGGQQAGGGCC [RAB2A] | 59.9 | 61 | -2.08 | -3.49 | -0.118 | -0.194
7 | MAYNDTDRNQTEKLLKRVRELEQEVQRLKKEQAKNKEDSNIRENSAGAGKTKRAFDFSAHGRRHVALRIAYMGWGYQGFASQENTNNTIEEKLFEALTKTRLVESRQTSNYHRCGRTDKGVSAFGQVISLDLRSQFPRGRDSEDFNVKEEANAAAEEIRYTHILNRVLPPDIRILAWAPVEPSFSARFSCLERTYRYFFPRADLDIVTMDYAAQKYVGTHDFRNLCKMDVANGVINFQRTILSAQVQLVGQSPGEGRWQEPFQLCQFEVTGQAFLYHQVRCMMAILFLIGQGMEKPEIIDELLNIEKNPQKPQYSMAVEFPLVLYDCKFENVKWIYDQEAQEFNITHLQQLWANHAVKTHMLYSMLQGLDTVPVPCGIGPKMDGMTEWGNVKPSVIKQTSAFVEGVKMRTYKPLMDRPKCQGLESRIQHFVRRGRIEHPHLFHEEETKAKRDCNDTLEEENTNLETPTKRVCVDTEIKSII [PUS3] | 51.6 | 52.7 | 0.0981 | -0.181 | -0.169 | 0.0227
8 | MAYQSLRLEYLQIPPVSRAYTTACVLTTAAVQLELITPFQLYFNPELIFKHFQIWRLITNFLFFGPVGFNFLFNMIFLYRYCRMLEEGSFRGRTADFVFMFLFGGFLMTLFGLFVSLVFLGQAFTIMLVYVWSRRNPYVRMNFFGLLNFQAPFLPWVLMGFSLLLGNSIIVDLLGIAVGHIYFFLEDVFPNQPGGIRILKTPSILKAIFDTPDEDPNYNPLPEERPGGFAWGEGQRLGG [DERL2] | 54.4 |  | -0.206 | -1.33 | -0.0878 | -0.0605
9 | MCAARLAAAAAAAQSVYAFSARPLAGGEPVSLGSLRGKVLLIENVASLUGTTVRDYTQMNELQRRLGPRGLVVLGFPCNQFGHQENAKNEEILNSLKYVRPGGGFEPNFMLFEKCEVNGAGAHPLFAFLREALPAPSDDATALMTDPKLITWSPVCRNDVAWNFEKFLVGPDGVPLRRYSRRFQTIDIEPDIEALLSQGPSCA [GPX1] | 56.8 | 56.6 | 1.13 | -0.307 | -0.15 | 0.559
10 | MCASVKYNIRGPALIPRMKTKHRIYYITLFSIVLLGLIATGMFQFWPHSIESSNDWNVEKRSIRDVPVVRLPADSPIPERGDLSCRMHTCFDVYRCGFNPKNKIKVYIYALKKYVDDFGVSVSNTISREYNELLMAISDSDYYTDDINRACLFVPSIDVLNQNTLRIKETAQAMAQLSRWDRGTNHLLFNMLPGGPPDYNTALDVPRDRALLAGGGFSTWTYRQGYDVSIPVYSPLSAEVDLPEKGPGPRQYFLLSSQVGLHPEYREDLEALQVKHGESVLVLDKCTNLSEGVLSVRKRCHKHQVFDYPQVLQEATFCVVLRGARLGQAVLSDVLQAGCVPVVIADSYILPFSEVLDWKRASVVVPEEKMSDVYSILQSIPQRQIEEMQRQARWFWEAYFQSIKAIALATLQIINDRIYPYAAISYEEWNDPPAVKWGSVSNPLFLPLIPPQSQGFTAIVLTYDRVESLFRVITEVSKVPSLSKLLVVWNNQNKNPPEDSLWPKIRVPLKVVRTAENKLSNRFFPYDEIETEAVLAIDDDIIMLTSDELQFGYEVWREFPDRLVGYPGRLHLWDHEMNKWKYESEWTNEVSMVLTGAAFYHKYFNYLYTYKMPGDIKNWVDAHMNCEDIAMNFLVANVTGKAVIKVTPRKKFKCPECTAIDGLSLDQTHMVERSECINKFASVFGTMPLKVVEHRADPVLYKDDFPEKLKSFPNIGSL [EXT2] | 54 | 53.4 | -1.61 | -1.33 | 0.0664 | -0.537
11 | MCGIFAYLNYHVPRTRREILETLIKGLQRLEYRGYDSAGVGFDGGNDKDWEANACKIQLIKKKGKVKALDEEVHKQQDMDLDIEFDVHLGIAHTRWATHGEPSPVNSHPQRSDKNNEFIVIHNGIITNYKDLKKFLESKGYDFESETDTETIAKLVKYMYDNRESQDTSFTTLVERVIQQLEGAFALVFKSVHFPGQAVGTRRGSPLLIGVRSEHKLSTDHIPILYRTARTQIGSKFTRWGSQGERGKDKKGSCNLSRVDSTTCLFPVEEKAVEYYFASDASAVIEHTNRVIFLEDDDVAAVVDGRLSIHRIKRTAGDHPGRAVQTLQMELQQIMKGNFSSFMQKEIFEQPESVVNTMRGRVNFDDYTVNLGGLKDHIKEIQRCRRLILIACGTSYHAGVATRQVLEELTELPVMVELASDFLDRNTPVFRDDVCFFLSQSGETADTLMGLRYCKERGALTVGITNTVGSSISRETDCGVHINAGPEIGVASTKAYTSQFVSLVMFALMMCDDRISMQERRKEIMLGLKRLPDLIKEVLSMDDEIQKLATELYHQKSVLIMGRGYHYATCLEGALKIKEITYMHSEGILAGELKHGPLALVDKLMPVIMIIMRDHTYAKCQNALQQVVARQGRPVVICDKEDTETIKNTKRTIKVPHSVDCLQGILSVIPLQLLAFHLAVLRGYDVDFPRNLAKSVTVE [GFPT1] | 56.1 | 56.2 | -0.54 | 0.683 | -0.226 | -0.169

Source: the supplement of paper PMC5998384
